Reference: ChEMBL document CHEMBL1145505, “Bisphosphonates target multiple sites in both cis- and trans-prenyltransferases” (Proc Natl Acad Sci U S A, 2007)

B1: Geranylgeranyl pyrophosphate synthase (Homo sapiens), O95749 (protein)
chain: MEKTQETVQRILLEPYKYLLQLPGKQVRTKLSQAFNHWLKVPEDKLQIIIEVTEMLHNASLLIDDIEDNSKLRRGFPVAHSIYGIPSVINSANYVYFLGLEKVLTLDHPDAVKLFTRQLLELHQGQGLDIYWRDNYTCPTEEEYKAMVLQKTGGLFGLAVGLMQLFSDYKEDLKPLLNTLGLFFQIRDDYANLHSKEYSENKSFCEDLTEGKFSFPTIHAIWSRPESTQVQNILRQRTENIDIKKYCVHYLEDVGSFEYTRNTLKELEAKAYKQIDARGGNPELVALVKHLSKMFKEENE
B2: Geranylgeranyl pyrophosphate synthase BTS1 (Saccharomyces cerevisiae S288c), Q12051 (protein)
chain: MEAKIDELINNDPVWSSQNESLISKPYNHILLKPGKNFRLNLIVQINRVMNLPKDQLAIVSQIVELLHNSSLLIDDIEDNAPLRRGQTTSHLIFGVPSTINTANYMYFRAMQLVSQLTTKEPLYHNLITIFNEELINLHRGQGLDIYWRDFLPEIIPTQEMYLNMVMNKTGGLFRLTLRLMEALSPSSHHGHSLVPFINLLGIIYQIRDDYLNLKDFQMSSEKGFAEDITEGKLSFPIVHALNFTKTKGQTEQHNEILRILLLRTSDKDIKLKLIQILEFDTNSLAYTKNFINQLVNMIKNDNENKYLPDLASHSDTATNLHDELLYIIDHLSEL

How the values were obtained:
[1] = substrate: CC(C)=CCC/C(C)=C/CC/C(C)=C/COP(=O)(O)OP(=O)(O)O; assay: Activity at human GGPPS
[2] = substrate: CC(C)=CCC/C(C)=C/CC/C(C)=C/COP(=O)(O)OP(=O)(O)O; assay: Activity at Saccharomyces cerevisiae GGPPS

Row | Protein | Km [1] [µM] | Km [2] [µM]
1 | B1 | 0.71 | 
2 | B2 |  | 3.2
